B1: human CEACAM1 IgV domain, wildtype [human] / itself (parent)
chain: AQLTTESMPFNVAEGKEVLLLVHNLPQQLFGYSWYKGERVDGNRQIVGYAIGTQQATPGPANSGRETIYPNASLLIQNVTQNDTGFYTLQVIKSDLVNEEATGQFHVY

Variants of: B1
Assay: SEC-MALS
Details: with itself; 100 μM protein; read off a plot

| screen value | Variant |
| --- | --- |
| 19000 Daltons | chain 1 V40A |
| 15000 Daltons | chain 1 E100A |
| 15000 Daltons | chain 1 I92A |

Source: paper PMC7979749, “Structural basis of the dynamic human CEACAM1 monomer-dimer equilibrium” (Communications Biology, 2021)
